Measured values: patent US20100291106A1 (Novartis, published 2010)

Columns and labels:
[1] = molecular target: T1, human complement C3b protein (human, UniProt P01024 23-667; P01024 749-1663); assay: bead proximity assay, C3b-acceptor beads; competitor biotinylated fB(D24G/N260D)
T1 construct: Purified plasma C3b (Complement Technology, Quidel); Depending on the assay it was captured by an anti-C3d antibody, coated, biotinylated or coupled to beads; also called human C3b; huC3b
Method: (§1) In brief, purified C3b and fP were conjugated to unconjugated acceptor or donor beads (PerkinElmer) using AminoLink Reductant (Pierce) during a 48 h incubation at room temperature. Beads were quenched using Carboxymethoxylamine Hemihydrochloride (Aldrich), and purified by centrifugation at 13000 rpm and three washes with 0.1M TBST. Purified fB(D24G/N260D) and fH were biotinylated during a 30 min incubation with 20-fold molar excess of NHS-Chromogenic-biotin (Pierce) at room temperature, and purified using Zeba 0.5 ml desalting columns (Pierce).
(§2) For C3b-C3b and C3b-fP proximity, Fabs or IgGs respectively were pre-incubated with C3b-Acceptor beads (20 μg/ml) for 60 min at room temperature. C3b-Donor beads or fP-Donor beads (20 μg/ml) were then added, and the plate was incubated overnight at room temperature before reading. For C3b-fB and C3b-fH proximity, antibodies were pre-incubated with C3b-Acceptor beads (20 μg/ml) for 60 minutes at room temperature. Biotinylated fB(D24G/N260D) or fH were then added, and incubated for 60 minutes at room temperature. SA-Donor beads were then added (20 μg/ml) and the plate was incubated overnight at room temperature before reading. Plates were read on the BMG Pherastar (ex=680, em=520-620).

human C3d [2] = molecular target: T2, human C3d (human, UniProt P01024 1002-1303); assay: cross reactivity, ELISA on C3d, anti-His detection
T2 construct: domain: C3d
T2 sequence (P01024 1002-1303 limits assumed): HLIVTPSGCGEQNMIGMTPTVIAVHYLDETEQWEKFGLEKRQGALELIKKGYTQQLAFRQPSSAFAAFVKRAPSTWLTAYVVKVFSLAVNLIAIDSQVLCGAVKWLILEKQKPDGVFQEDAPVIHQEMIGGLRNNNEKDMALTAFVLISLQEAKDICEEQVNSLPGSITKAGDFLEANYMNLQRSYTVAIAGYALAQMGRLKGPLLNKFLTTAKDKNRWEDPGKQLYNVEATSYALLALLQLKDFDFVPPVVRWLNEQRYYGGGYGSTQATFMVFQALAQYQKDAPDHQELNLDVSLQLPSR

[3] = molecular target: T1, human complement C3b protein; assay: bead proximity assay, C3b-acceptor beads; competitor biotinylated fH
Method: as §1, §2

human C5 = molecular target: T3, human C5 (human, UniProt P01031 19-673; P01031 678-1676); assay: Direct ELISA at 2 ug/ml C5, 200 nM Fab
T3 construct: Captured by an anti-C5 antibody in the ELISA
T3 sequence (P01031 19-673 limits assumed, chain 1 of 2): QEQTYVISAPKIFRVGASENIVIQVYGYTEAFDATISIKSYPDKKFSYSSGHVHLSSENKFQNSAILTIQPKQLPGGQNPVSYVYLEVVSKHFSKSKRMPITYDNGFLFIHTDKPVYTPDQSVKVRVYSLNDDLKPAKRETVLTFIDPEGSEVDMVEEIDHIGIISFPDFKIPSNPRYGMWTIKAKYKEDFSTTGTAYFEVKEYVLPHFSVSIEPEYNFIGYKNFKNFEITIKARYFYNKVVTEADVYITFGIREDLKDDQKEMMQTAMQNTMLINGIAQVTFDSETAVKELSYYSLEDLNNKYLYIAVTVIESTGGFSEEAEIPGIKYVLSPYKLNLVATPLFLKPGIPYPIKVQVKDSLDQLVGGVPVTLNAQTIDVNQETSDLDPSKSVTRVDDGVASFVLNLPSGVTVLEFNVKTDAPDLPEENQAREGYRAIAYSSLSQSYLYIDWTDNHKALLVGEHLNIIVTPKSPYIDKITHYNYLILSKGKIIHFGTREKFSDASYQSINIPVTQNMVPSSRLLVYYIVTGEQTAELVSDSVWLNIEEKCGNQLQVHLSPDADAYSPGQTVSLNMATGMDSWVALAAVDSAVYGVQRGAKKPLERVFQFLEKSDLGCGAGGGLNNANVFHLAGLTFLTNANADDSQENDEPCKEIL
T3 sequence (P01031 678-1676 limits assumed, chain 2 of 2): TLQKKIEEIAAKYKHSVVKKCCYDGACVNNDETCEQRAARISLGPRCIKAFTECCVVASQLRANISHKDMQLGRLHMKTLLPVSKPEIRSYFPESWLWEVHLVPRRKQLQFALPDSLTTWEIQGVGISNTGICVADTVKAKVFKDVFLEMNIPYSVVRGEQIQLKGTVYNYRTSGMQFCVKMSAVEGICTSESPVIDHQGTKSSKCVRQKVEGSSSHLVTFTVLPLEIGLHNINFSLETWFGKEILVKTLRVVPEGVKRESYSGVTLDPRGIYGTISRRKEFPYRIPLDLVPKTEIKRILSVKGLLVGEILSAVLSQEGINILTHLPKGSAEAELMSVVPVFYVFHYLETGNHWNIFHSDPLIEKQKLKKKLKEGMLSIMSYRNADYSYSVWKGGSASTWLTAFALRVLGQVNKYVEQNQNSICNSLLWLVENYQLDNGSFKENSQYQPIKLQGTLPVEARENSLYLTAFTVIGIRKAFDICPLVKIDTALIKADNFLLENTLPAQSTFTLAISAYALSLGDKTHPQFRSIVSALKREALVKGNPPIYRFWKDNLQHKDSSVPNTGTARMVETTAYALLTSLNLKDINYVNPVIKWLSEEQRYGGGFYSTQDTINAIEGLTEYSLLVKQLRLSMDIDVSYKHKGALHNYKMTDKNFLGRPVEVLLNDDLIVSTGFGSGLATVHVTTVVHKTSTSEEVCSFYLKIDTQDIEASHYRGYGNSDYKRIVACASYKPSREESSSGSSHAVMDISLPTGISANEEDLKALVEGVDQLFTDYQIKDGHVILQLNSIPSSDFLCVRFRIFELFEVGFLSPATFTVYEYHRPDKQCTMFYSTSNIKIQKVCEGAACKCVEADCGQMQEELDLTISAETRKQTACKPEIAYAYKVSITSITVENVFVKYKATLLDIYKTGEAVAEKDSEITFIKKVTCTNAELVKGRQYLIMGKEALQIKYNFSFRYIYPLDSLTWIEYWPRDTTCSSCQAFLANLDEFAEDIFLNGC

[4] = molecular target: T4, cynomolgus complement C3b protein (cynomolgus monkey (Macaca fascicularis)); assay: SPR (Biacore), C3b captured by anti-C3d antibody, Fab as analyte
T4 construct: also called cyno C3b; cynoC3b

[5] = molecular target: T1, human complement C3b protein; assay: as above
[6] = molecular target: T4, cynomolgus complement C3b protein; assay: cell-based or functional assay
[7] = molecular target: T1, human complement C3b protein; assay: cell-based or functional assay
[8] = molecular target: T4, cynomolgus complement C3b protein; assay: solution equilibrium titration (SET), ECL detection, Fab
[9] = molecular target: T1, human complement C3b protein; assay: as above
[10] = molecular target: T1, human complement C3b protein; assay: AlphaScreen bead proximity, C3b-Acceptor beads pre-incubated with antibody, then C3b-Donor beads; inhibition of C3b-C3b dimer formation; unit from the axis [Antibody] nM [D]
Method: as §1, §2

[11] = molecular target: T1, human complement C3b protein; assay: ELISA, C3b or C3 captured by anti-C3d antibody
Method: The C3b antibodies were examined to determine whether they were selective for binding to C3b relative to the C3b precursor C3. Briefly, binding selectivity for C3b was determined by performing the following steps. Coat Maxisorp plate Nunc (442404) with anti-C3d rabbit monoclonal (abcam 17453) at 2 μg/ml in Carbonate Buffer at 100 μl/well. Seal plates and incubate at 4° C. overnight. Aspirate plates and wash 3 times with PBS/0.5% Tween 20. Block plates with Diluent (PBS, 4% BSA Fraction V (Fisher ICN16006980), 0.1% Tween 20 (Sigma P1379), 0.1% Triton X-100 (Sigma P234729)) and incubate for 2 h at room temperature or overnight at 4° C. Then wash plates once with PBS/0.5% Tween 20. Dilute purified C3b (complement technologies A114 lot 21) and C3 (complement technologies A113c) at 1 μg/ml in diluent and plate 100 μl per well. Incubate for 1 h at room temperature. Then wash 3 times with PBS/0.5% Tween 20.
Dilute Fabs at 100 nM and subsequent dilutions (or higher concentration) in diluent and plate 100 μl per well. Incubate at room temperature for 1 h. Wash plates 3 times with PBS/0.5% Tween 20. Add 100 μl/well of anti-Histidine-HRP monoclonal detection antibody at 1:400 in diluent and incubate at room temperature for 1 h. Then wash 4 times with PBS/0.5% Tween 20. Add 100 μl of TMB substrate (Pierce 34028) and incubate at room temperature for up to 5 min. Add 50 μl of Stop solution (2N Sulfuric Acid) to each well and read plate at 450 nm and correct for plastic reading at 570 nm.

human C3d [12] = molecular target: T2, human C3d; assay: C3d binding ELISA, IgG titrated from about 0.006 to 100 nM
[13] = molecular target: T1, human complement C3b protein; assay: AlphaScreen bead proximity, C3b-Acceptor beads pre-incubated with antibody, then biotinylated fH and SA-Donor beads; blocked ligand: fH [C]
Method: as §1, §2

[14] = molecular target: T1, human complement C3b protein; assay: cell-based or functional assay; remark: listed apart in the source
[15] = molecular target: T4, cynomolgus complement C3b protein; assay: SPR (Biacore T100), C3b captured by anti-C3d antibody, IgG as analyte, 1:1 model
[16] = molecular target: T1, human complement C3b protein; assay: as above
[17] = molecular target: T1, human complement C3b protein; assay: AlphaScreen bead proximity, C3b-Acceptor beads pre-incubated with antibody, then biotinylated fB(D24G/N260D) and SA-Donor beads; blocked ligand: fB [A]
Method: as §1, §2

T1 sequence (P01024 23-667 P314L, chain 1 of 2): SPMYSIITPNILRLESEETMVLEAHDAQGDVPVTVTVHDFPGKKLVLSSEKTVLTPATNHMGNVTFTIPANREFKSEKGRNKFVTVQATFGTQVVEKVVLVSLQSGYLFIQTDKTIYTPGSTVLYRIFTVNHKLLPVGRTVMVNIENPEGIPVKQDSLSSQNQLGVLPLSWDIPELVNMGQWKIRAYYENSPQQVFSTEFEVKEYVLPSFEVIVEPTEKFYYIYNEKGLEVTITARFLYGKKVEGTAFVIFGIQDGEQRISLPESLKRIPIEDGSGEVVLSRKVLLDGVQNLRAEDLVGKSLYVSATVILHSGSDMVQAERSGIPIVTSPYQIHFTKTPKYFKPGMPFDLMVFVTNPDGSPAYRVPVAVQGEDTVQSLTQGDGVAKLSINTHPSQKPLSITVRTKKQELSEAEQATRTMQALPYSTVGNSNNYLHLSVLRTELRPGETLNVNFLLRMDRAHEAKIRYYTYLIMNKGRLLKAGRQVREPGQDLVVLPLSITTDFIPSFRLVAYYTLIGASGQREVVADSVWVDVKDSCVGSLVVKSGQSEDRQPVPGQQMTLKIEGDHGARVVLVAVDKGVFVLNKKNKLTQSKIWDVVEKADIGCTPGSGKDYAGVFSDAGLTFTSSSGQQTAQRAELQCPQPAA
T1 sequence (P01024 749-1663, chain 2 of 2): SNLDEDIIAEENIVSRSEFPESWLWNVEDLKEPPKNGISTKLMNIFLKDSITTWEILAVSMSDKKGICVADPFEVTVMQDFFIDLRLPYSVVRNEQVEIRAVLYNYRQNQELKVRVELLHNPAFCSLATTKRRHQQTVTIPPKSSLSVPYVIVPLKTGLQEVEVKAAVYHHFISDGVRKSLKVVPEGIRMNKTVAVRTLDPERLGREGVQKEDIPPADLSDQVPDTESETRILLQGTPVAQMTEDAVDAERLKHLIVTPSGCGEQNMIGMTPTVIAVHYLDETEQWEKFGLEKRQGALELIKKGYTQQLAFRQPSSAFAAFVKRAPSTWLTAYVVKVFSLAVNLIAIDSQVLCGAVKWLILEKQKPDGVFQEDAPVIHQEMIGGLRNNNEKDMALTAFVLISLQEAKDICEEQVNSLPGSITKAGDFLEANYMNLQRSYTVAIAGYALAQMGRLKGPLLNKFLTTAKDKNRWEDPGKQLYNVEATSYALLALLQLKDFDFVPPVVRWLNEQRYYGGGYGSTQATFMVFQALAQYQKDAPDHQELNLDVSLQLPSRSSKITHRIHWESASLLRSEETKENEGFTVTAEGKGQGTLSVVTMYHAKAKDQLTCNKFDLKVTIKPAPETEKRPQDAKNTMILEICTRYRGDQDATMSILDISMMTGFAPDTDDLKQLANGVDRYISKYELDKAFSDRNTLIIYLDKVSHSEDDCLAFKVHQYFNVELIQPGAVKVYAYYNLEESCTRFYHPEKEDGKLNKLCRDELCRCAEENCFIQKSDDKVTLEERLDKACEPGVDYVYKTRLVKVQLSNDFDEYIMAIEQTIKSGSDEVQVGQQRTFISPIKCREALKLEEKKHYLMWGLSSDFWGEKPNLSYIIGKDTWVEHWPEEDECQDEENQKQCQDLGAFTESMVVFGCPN

| IC50 [1] [nM] | binding result (human C3d [2]) | IC50 [3] [nM] | binding result (human C5) | Kd [4] [nM] | Kd [5] [nM] | C3b Dep (nM), cyno serum, IC50 [6] [nM] | HA (nM), 10% cyno serum, IC50 [6] [nM] | MAC Dep (nM), cyno serum, IC50 [6] [nM] | C3a (nM), human, inhibition of C3a generation [7] [nM] | C3b Dep (nM), human serum, IC50 [7] [nM] | C5a (nM), human, inhibition of C5a generation [7] [nM] | HA (nM), 10% human serum, IC50 [7] [nM] | MAC Dep (nM), human serum, IC50 [7] [nM] | Kd [8] [nM] | Kd [9] [nM] | Binder | also measured |
| --- | --- | --- | --- | --- | --- | --- | --- | --- | --- | --- | --- | --- | --- | --- | --- | --- | --- |
| 0.15 | no binding | 0.2 | no binding (tested: 200 nM) | 0.042 | 0.0066 | 43 | 99 | 18 | 90 | 24 | 17 | 62 | 4 | 0.018 | 0.0015 | MOR9556 Fab format (Fab, V domains shown) VH: EVQLVESGGGLVQPGGSLRLSCAASGFTFSSYWMTWVRQAPGKGLEWVSSIKIKPDGYAASVKGRFTISRDNSKNTLYLQMNSLRAEDTAVYYCARLFYQYFARMDYWGQGTLVTVSS VL: DIQMTQSPSSLSASVGDRVTITCRASQDISNYLNWYQQKPGKAPKLLIYAASNLQSGVPSRFSGSGSGTDFTLTISSLQPEDFATYYCQQYDSYSPTFGQGTKVEIK | – |
| – | – | – | – | – | – | – | – | – | – | – | – | – | – | – | – | MOR09611 IgG (antibody, V domains shown, Germlined human IgG1 with leucines 234 and 235 changed to alanines, kappa; also called antibody 9611) VH: EVQLVESGGGLVQPGGSLRLSCAASGFTFSSYWMTWVRQAPGKGLEWVSSIKIKPDGYAASVKGRFTISRDNSKNTLYLQMNSLRAEDTAVYYCARLFYQYFARMDYWGQGTLVTVSS VL: DIQMTQSPSSLSASVGDRVTITCRASQDISNYLNWYQQKPGKAPKLLIYAASNLQSGVPSRFSGSGSGTDFTLTISSLQPEDFATYYCQQHDTFRPTFGQGTKVEIKR | EC50 [10]: 605 nM; fold binding selectivity for C3b over C3 [11]: > 1000 fold; binding result (human C3d [12]): no binding (tested: 100 nM); IC50 (read off the curve) [13]: ~0.04 nM; MAC deposition on zymosan, IC50 [14]: ≤ 5 nM; hemolysis of rabbit red blood cells, 10% human or cynomolgus serum, IC50 [14]: ≤ 50 nM; inhibition of C3a and C5a generation during hemolysis, IC50 [14]: ≤ 50 nM; Kd [15]: 0.0183 nM; koff [15]: 0.000128 s⁻¹; kon [15]: 6.97e+06 M⁻¹ s⁻¹; Kd [16]: 0.000435 nM; koff [16]: 3.1e-06 s⁻¹; kon [16]: 7.13e+06 M⁻¹ s⁻¹; IC50 (read off the curve) [17]: ~0.05 nM |
| 1 | no binding | 0.2 | no binding (tested: 200 nM) | 0.562 | 0.121 | 43 | 92 | 14 | 97 | 11 | 36 | 60 | 3 | 0.241 | 0.052 | MOR9675 Fab format (Fab, V domains shown) VH: EVQLVQSGAEVKKPGASVKVSCKASGYTFTGYYINWVRQAPGQGLEWMGIISPNQGTTGYAQKFQGRVTMTRDTSISTAYMELSSLRSEDTAVYYCARGNYDHLDYWGQGTLVTVSS VL: DIQMTQSPSSLSASVGDRVTITCRASQGISNYLNWYQQKPGKAPKLLIYDASTLQSGVPSRFSGSGSGTDFTLTISSLQPEDFATYYCQQDWHTLPVTFGQGTKVEIK | – |
